Reference: patent US20180282426A1 (NOVIMMUNE S A, published 2018)

Columns and labels:
[1] = target: T1, human TLR4 alone in transfected HEK 293 cells (human, UniProt O00206 24-839); test: FACS on transiently transfected HEK 293 cells, 15C1 at 10 µg/ml
T1 construct: whole, on cells; also called TLR4 alone in transfected cell lysates
Procedure: (§1) FIGS. 17A-17F are a series of graphs depicting the specificity of the 15C1 monoclonal antibody for TLR4. The specificity of the 15C1 antibody is shown by flow cytometry analysis of HEK 293 cells transiently transfected with either mock vector, i.e., empty vector (FIG. 17A), human TLR4 (FIG. 17B), human TLR4 and human MD-2 (FIG. 17C), rabbit TLR4 and rabbit MD-2 (FIG. 17D), human TLR4 and rabbit MD-2 (FIG. 17E), or rabbit TLR4 and human MD-2 (FIG. 17F). Cells were incubated with the 15C1 monoclonal antibody (10 μg/ml), followed by an APC-coupled α-mouse (H+L) antibody.
(§2) HEK 293 cells were plated in 6 well plates at a density of 2.5×10⁵ cells/well in 2 ml culture medium containing 10% FBS. 16 hours post-plating, cells were transfected with 0.75 μg of the appropriate vector(s) using Fugene™ reagent (Roche) according to the manufacturer's guidelines. 48 hours post-transfection, cells were stained with the appropriate monoclonal antibody (as indicated in FIGS. 4A-4L) and an APC-coupled goat anti-mouse IgG (H+L) antibody (Molecular Probes) and analyzed using the FACScalibur in the FL-4 channel.

[2] = target: T2, human TLR4 and human MD-2 on transiently transfected HEK 293 cells (human, UniProt O00206 24-839; Q9Y6Y9 19-160); test: as above
T2 construct: whole, on cells; also called human TLR4/MD-2 complex
T2 sequence (O00206 24-839, chain 1 of 2): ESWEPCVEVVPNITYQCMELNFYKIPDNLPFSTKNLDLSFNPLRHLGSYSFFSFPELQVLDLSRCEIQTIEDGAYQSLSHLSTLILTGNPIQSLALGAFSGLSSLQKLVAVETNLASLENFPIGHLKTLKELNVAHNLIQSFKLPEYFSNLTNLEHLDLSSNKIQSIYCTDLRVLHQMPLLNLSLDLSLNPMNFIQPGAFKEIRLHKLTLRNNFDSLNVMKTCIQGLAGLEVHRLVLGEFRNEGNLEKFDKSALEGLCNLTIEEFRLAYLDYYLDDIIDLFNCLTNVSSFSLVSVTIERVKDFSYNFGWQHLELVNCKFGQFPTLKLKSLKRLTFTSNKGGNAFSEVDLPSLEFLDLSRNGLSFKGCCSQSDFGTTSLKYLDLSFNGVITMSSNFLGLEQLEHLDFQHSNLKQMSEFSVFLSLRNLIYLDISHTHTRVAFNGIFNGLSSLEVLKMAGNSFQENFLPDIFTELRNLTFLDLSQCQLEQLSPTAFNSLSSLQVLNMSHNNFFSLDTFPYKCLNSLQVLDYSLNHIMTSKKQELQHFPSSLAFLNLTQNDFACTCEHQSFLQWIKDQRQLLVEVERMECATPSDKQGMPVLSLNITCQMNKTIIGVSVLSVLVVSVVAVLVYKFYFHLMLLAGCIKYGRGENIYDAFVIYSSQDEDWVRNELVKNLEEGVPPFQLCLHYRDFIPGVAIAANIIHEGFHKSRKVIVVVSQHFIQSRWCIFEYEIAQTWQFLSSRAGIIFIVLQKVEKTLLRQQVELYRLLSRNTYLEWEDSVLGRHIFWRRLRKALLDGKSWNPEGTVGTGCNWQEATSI
T2 sequence (Q9Y6Y9 19-160, chain 2 of 2): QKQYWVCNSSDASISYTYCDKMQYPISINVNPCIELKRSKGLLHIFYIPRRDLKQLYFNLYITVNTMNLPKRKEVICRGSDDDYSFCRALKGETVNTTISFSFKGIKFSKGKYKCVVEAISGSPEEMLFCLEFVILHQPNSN
Procedure: as §1, §2

[3] = target: T3, human TLR4/MD-2 complex on the surface of transfected CHO cells (human, UniProt O00206 24-839; Q9Y6Y9 19-160); test: flow cytometry, mock transfected vs. TLR4/MD-2 transfected cells
T3 construct: whole, on cells; also called TLR4/MD-2 transfected CHO cells; hTLR4/MD-2 transfected CHO cells
T3 sequence (O00206 24-839, chain 1 of 2): as the sequence (O00206 24-839, chain 1 of 2) above
T3 sequence (Q9Y6Y9 19-160, chain 2 of 2): as the sequence (Q9Y6Y9 19-160, chain 2 of 2) above

[4] = target: T3, human TLR4/MD-2 complex on the surface …; test: flow cytometry on TLR4/MD-2 transfected CHO cells, against an isotype matched control monoclonal antibody
Description: FIG. 19 is a graph depicting that the VH and VL nucleotide sequence of 15C1 expressed as a chimeric MAb (“chimeric 15C1”) is capable of binding specifically to the human TLR4/MD-2 complex on the surface of transfected CHO cells. MAb binding to the TLR4/MD-2 complex is shown by flow cytometry using chimeric 15C1 or an isotype matched control monoclonal antibody at the indicated concentration.
(§3) Specific binding of MAb at the indicated concentration was detected using an APC-labeled goat-anti-human IgG (H+L) secondary antibody. An irrelevant isotype-matched IgG1 MAb was used as a control.

[5] = target: T3, human TLR4/MD-2 complex on the surface …; test: FACS of hybridoma supernatant on mock vs. TLR4/MD-2 transfected CHO cells
Procedure: Mice immunized with CHO cells expressing surface TLR4/MD-2 were monitored for specific serum titers. […] This strategy was chosen in order to minimize the response to non-specific CHO cellular antigens, while simultaneously maximizing the TLR4/MD-2-specific response. Screening by FACS of supernatants from hybridomas resulting from B cell/myeloma fusions was performed on mock transfected vs. TLR4/MD-2 transfected CHO cells.

[6] = target: T2, human TLR4 and human MD-2 on …; test: FACS on transiently transfected HEK 293 cells
Procedure: FIGS. 4A-4L are a series of graphs depicting the specificity of the 18H10 monoclonal antibody for MD-2. The specificity of the 18H10 antibody is shown by flow cytometry analysis of HEK 293 cells transiently transfected with either human TLR4 and human MD-2 (FIG. 4A, FIG. 4E and FIG. 4I); rabbit TLR4 and rabbit MD-2 (FIG. 4B, FIG. 4F and FIG. 4J); human TLR4 and rabbit MD-2 (FIG. 4C, FIG. 4G and FIG. 4K); or rabbit TLR4 and human MD-2 (FIG. 4D, FIG. 4H and FIG. 4L). Cells were incubated with either α-FLAG™ antibody (to detect TLR4 expression); α-C-myc antibody (to detect MD-2 expression) or the 18H10 monoclonal antibody, followed by an APC-coupled α-mouse (H+L) antibody.
FIGS. 12A-12L is a series of graphs depicting the specificity of the 16G7 monoclonal antibody for TLR4. […]
as §2, with “16 hours post-plating, cells were transfected with 0.75 μg of the appropriate vector(s) using Fugene™ reagent (Roche) according to the manufacturer's guidelines.” left out

[7] = target: T1, human TLR4 alone in transfected HEK 293 …; test: FACS on HEK 293 cells transfected with human TLR4 alone
Procedure: (§4) FIGS. 24A-24F is a series of graphs depicting the specificity of the 7E3 monoclonal antibody for the TLR4/MD-2 complex. The specificity of the 7E3 antibody is shown by flow cytometry analysis of HEK 293 cells transiently transfected with either mock vector (FIG. 24A), human TLR4 (FIG. 24B), human TLR4 and human MD-2 (FIG. 24C), rabbit TLR4 and rabbit MD-2 (FIG. 24D), human TLR4 and rabbit MD-2 (FIG. 24E), or rabbit TLR4 and human MD-2 (FIG. 24F). Cells were incubated with the 7E3 monoclonal antibody (10 μg/ml), followed by an APC-coupled α-mouse (H+L) antibody.
as §2

[8] = target: T2, human TLR4 and human MD-2 on …; test: FACS on transiently transfected HEK 293 cells, 7E3 at 10 µg/ml
Procedure: as §4, §2

[9] = target: T3, human TLR4/MD-2 complex on the surface …; test: flow cytometry on TLR4/MD-2 transfected CHO cells, against an isotype matched control MAb
Description: FIG. 26 is a graph illustrating that the VH and VL nucleotide sequence of 7E3 expressed as a chimeric MAb (“chimeric 7E3”) is capable of binding specifically to the human TLR4/MD-2 complex on the surface of transfected CHO cells. Monoclonal antibody binding to TLR4/MD-2 transfected CHO cells is shown by flow cytometry using chimeric 7E3 or an isotype matched control MAb at the indicated concentrations.
as §3

T1 sequence (O00206 24-839): as the sequence (O00206 24-839, chain 1 of 2) above

B1: 15C1 monoclonal antibody (antibody, IgG1, V domains shown)
VH: DVQLQESGPDLIQPSQSLSLTCTVTGYSITGGYSWHWIRQFPGNKLEWMGYIHYSGYTDFNPSLKTRISITRDTSKNQFFLQLNSVTTEDTATYYCARKDPSDGFPYWGQGTLVTVSA
VL: DIVMTQSPATLSVTPGDRVSLSCRASQSISDHLHWYQQKSHESPRLLIKYASHAISGIPSRFSGSGSGTDFTLSIKSVEPEDIGVYYCQNGHSFPLTFGAGTKLELKR
notes: also called 15C1 MAb; 15C1 mouse MAb
**Q.** Does B1 bind [1]?
**A.** Result: binds

**Q.** Does B1 bind [2]?
**A.** Result: binds

**Q.** Does B1 bind [3]?
**A.** Result: binds

B2: chimeric 15C1 MAb (antibody, V domains shown)
VH: DVQLQESGPDLIQPSQSLSLTCTVTGYSITGGYSWHWIRQFPGNKLEWMGYIHYSGYTDFNPSLKTRISITRDTSKNQFFLQLNSVTTEDTATYYCARKDPSDGFPYWGQGTLVTVSA
VL: DIVMTQSPATLSVTPGDRVSLSCRASQSISDHLHWYQQKSHESPRLLIKYASHAISGIPSRFSGSGSGTDFTLSIKSVEPEDIGVYYCQNGHSFPLTFGAGTKLELKR
notes: also called chimerical 15C1
**Q.** Does B2 bind [4]?
**A.** Result: binds

B3: 16G7 monoclonal antibody (antibody, IgG1, V domains shown)
VH: QVKLQESGAELMKPGASVKISCKATGYKFSDYWIEWIKQRPGHGLEWIGEILPGSGSTNYNEDFKDKATFTSDTSSNTAYMQLSSLTSEDSAVYYCAKEERAYYFGYWGQGTTVTVSS
VL: DVLMTQTPLSLPVSLGDQASISCRSSQSLENSNGNTYLNWYLQKPGQSPQLLIYRVSNRFSGVLDRFSGSGSGTDFTLKISRVEAEDLGVYFCLQVTHVPPTFGAGTKLELKR
**Q.** Does B3 bind [5]?
**A.** Result: binds

**Q.** Does B3 bind [6]?
**A.** Result: binds

B4: 7E3 monoclonal antibody (antibody, IgG1, V domains shown)
VH: QVTLKESGPGILQPSQTLSLTCSFSGFSLTTYNIGVGWIRQPSGKGLEWLAHIWWNDNIYYNTVLKSRLTFSKDTSNNQVFLKIASVDIADTATYYCIRMAEGRYDAMDYWGQGTSVTVSS
VL: AIQMTQSTSSLSASLGDRVTINCRASQDITNYLNWYQQKPDGTVRLLIYYTSKLHSGAPSRFSGRGSGTDYSLTISNLEQEDIATYFCQQGNTFPWTFGGGTKLEIKR
**Q.** What does the source list for B4?
**A.** binding result [3]: binds; binding result [7]: no binding (tested: 10 µg/ml); binding result [8]: binds

B5: chimeric 7E3 MAb (antibody, V domains shown)
VH: QVTLKESGPGILQPSQTLSLTCSFSGFSLTTYNIGVGWIRQPSGKGLEWLAHIWWNDNIYYNTVLKSRLTFSKDTSNNQVFLKIASVDIADTATYYCIRMAEGRYDAMDYWGQGTSVTVSS
VL: AIQMTQSTSSLSASLGDRVTINCRASQDITNYLNWYQQKPDGTVRLLIYYTSKLHSGAPSRFSGRGSGTDYSLTISNLEQEDIATYFCQQGNTFPWTFGGGTKLEIKR
**Q.** Does B5 bind [9]?
**A.** Result: binds

B6: chimeric 18H10 MAb (antibody, V domains shown)
VH: QVQLQQSGADLVRPGALVKLSCTASGFNIKDSYIHWVKKRPEWGLEWIGWTDPENVNSIYDPRFQGKASITADTSSNTAFLQLTSLTSEDTAVYYCARGYNGVYYAMDYWGQGTTVTVSS
VL: QIVLTQSPSIMSASLGEEITLTCSASSSVIYMHWYQQKSGTSPKLLIYRTYNLASGVPSRFSGSGSGTFYSLTISSVEAEDAADYYCHQWSSFPYTFGGGTKLEIKR
**Q.** Does B6 bind [9]?
**A.** Result: binds
